Blank lines part the entries; values can stand above or below the binder they belong to.
Tests used:
Conditions in all cases: both partners purified
His-tagged IFNAR2 = target: T1, His-tagged IFNAR2 (human, UniProt P48551 27-243); assay: BLI; His-tagged IFNAR1 (25 nM) or IFNAR2 (100 nM) loaded on Ni-NTA biosensors for 600 s; IFN-I in solution, association 60-120 s, dissociation 120 s; 0.02% Tween-20, 0.1% BSA in 1x PBS, pH 7.4; Octet R2
T1 construct: interferon alpha/beta receptor 2 (IFNAR2), human; Soluble recombinant receptor subunit loaded on Ni-NTA biosensors; source: bought: ACROBiosystems (IF2-H5224)
T1 sequence (looked up): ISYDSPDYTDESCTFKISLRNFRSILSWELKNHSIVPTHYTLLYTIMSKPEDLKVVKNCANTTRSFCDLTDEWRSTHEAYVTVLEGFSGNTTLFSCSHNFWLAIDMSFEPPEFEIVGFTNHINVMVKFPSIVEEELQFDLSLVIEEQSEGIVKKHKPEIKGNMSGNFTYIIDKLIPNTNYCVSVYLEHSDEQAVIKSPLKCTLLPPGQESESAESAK

His-tagged IFNAR1 = target: T2, His-tagged IFNAR1 (human, UniProt P17181 28-436); assay: as above
T2 construct: interferon alpha/beta receptor 1 (IFNAR1), human; Soluble recombinant receptor subunit loaded on Ni-NTA biosensors; source: bought: ACROBiosystems (IF1-H5225)
T2 sequence (looked up): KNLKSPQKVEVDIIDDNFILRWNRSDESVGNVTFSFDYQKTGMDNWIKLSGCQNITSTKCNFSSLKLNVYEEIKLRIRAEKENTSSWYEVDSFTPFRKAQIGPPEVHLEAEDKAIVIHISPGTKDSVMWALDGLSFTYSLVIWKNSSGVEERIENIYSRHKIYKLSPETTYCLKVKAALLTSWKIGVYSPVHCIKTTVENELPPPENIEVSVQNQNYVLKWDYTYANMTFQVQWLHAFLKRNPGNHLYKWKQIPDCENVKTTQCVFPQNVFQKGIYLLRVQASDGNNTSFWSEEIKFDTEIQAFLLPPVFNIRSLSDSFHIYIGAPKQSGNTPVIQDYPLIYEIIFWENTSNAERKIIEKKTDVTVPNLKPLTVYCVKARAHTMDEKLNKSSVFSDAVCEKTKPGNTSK

Fc-tagged IFNα1 = target: T3, Fc-tagged IFNα1 (human, UniProt P0DY56); assay: BLI; blocking format: IFN-I preincubated 1 h at room temperature with rontalizumab (1:50), sifalimumab (1:50) or plasma (1:10) in assay buffer with 50% goat serum; His-tagged IFNAR1 or IFNAR2 loaded on Ni-NTA biosensors, blocked in 100% goat serum; association 120 s
T3 construct: interferon alpha-1 (IFNα1), human; source: bought: ACROBiosystems (IFA-H5258)

binding result (His-tagged IFNAR2): binds
binding result (His-tagged IFNAR1): binds
B1: Fc-tagged IFNα1 (Fc fusion, human, UniProt P0DY56 24-189, looked up)
chain: CDLPETHSLDNRRTLMLLAQMSRISPSSCLMDRHDFGFPQEEFDGNQFQKAPAISVLHELIQQIFNLFTTKDSSAAWDEDLLDKFCTELYQQLNDLEACVMQEERVGETPLMNADSILAVKKYFRRITLYLTEKKYSPCAWEVVRAEIMRSLSLSTNLQERLRRKE
notes: interferon alpha-1 (IFNα1), human; source: bought: ACROBiosystems (IFA-H5258)

binding result (Fc-tagged IFNα1): binds
B2: rontalizumab (antibody, V domains shown)
VH: EVQLVESGGGLVQPGGSLRLSCATSGYTFTEYIIHWVRQAPGKGLEWVASINPDYDITNYNQRFKGRFTISLDKSKRTAYLQMNSLRAEDTAVYYCASWISDFFDYWGQGTLVTVSS
VL: DIQMTQSPSSLSASVGDRVTITCRASQSVSTSSYSYMHWYQQKPGKAPKVLISYASNLESGVPSRFSGSGSGTDFTLTISSLQPEDFATYYCQHSWGIPRTFGQGTKVEIK
notes: source: bought: Thermo Fisher Scientific (MA5-41908)

binding result (Fc-tagged IFNα1): binds
B3: sifalimumab (antibody, V domains shown)
VH: QVQLVQSGAEVKKPGASVKVSCKASGYTFTSYSISWVRQAPGQGLEWMGWISVYNGNTNYAQKFQGRVTMTTDTSTSTAYLELRSLRSDDTAVYYCARDPIAAGYWGQGTLVTVSS
VL: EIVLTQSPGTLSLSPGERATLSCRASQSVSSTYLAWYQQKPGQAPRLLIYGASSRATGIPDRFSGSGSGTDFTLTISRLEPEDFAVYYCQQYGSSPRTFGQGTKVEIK
notes: source: bought: Thermo Fisher Scientific (MA5-41904)
